Laboratory results reported in patent US20190083645A1 (AbbVie / Abbott, published 2019).

T1: human CLDN6 (human, UniProt P56747 1-220)
T1 sequence: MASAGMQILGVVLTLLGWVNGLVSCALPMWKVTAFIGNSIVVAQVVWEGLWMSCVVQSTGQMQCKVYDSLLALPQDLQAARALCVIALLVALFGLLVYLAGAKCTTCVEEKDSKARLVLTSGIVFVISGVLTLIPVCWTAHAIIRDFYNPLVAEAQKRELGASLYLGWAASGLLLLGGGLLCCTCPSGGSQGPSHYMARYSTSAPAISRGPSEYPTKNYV

T2: human CLDN9 (human, UniProt O95484 1-217)
T2 sequence: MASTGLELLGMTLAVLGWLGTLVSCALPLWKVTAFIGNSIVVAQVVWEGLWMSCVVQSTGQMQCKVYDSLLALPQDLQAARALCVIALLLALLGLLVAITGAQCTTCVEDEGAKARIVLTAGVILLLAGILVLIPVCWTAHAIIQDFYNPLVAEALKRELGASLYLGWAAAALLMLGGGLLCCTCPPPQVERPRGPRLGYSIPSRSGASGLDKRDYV

T3: human CLDN4 (human, UniProt O14493 1-209)
T3 sequence (looked up): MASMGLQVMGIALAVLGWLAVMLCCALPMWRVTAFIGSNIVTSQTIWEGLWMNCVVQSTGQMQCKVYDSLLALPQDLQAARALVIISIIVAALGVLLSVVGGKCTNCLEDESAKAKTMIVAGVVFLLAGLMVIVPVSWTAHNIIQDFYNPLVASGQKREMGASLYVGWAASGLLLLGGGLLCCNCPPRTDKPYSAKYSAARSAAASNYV


Experiments:
Assay in all cases: cell-based or functional assay
human CLDN6 = target: T1, human CLDN6
human CLDN9 = target: T2, human CLDN9
human CLDN4 = target: T3, human CLDN4

| Binder | apparent IC50, killing of HEK293T cells overexpressing hCLDN6 with anti-mouse Fab-saporin, CellTiter-Glo (human CLDN6) | apparent IC50, killing of HEK293T cells overexpressing hCLDN9 with anti-mouse Fab-saporin, CellTiter-Glo (human CLDN9) | apparent IC50, killing of HEK293T cells overexpressing hCLDN4 with anti-mouse Fab-saporin, CellTiter-Glo (human CLDN4) |
| --- | --- | --- | --- |
| SC27.204 (antibody, V domains shown) VH: EVKVLESGGGLVQPGGSLKLSCAASGFDFSRYWMSWVRQAPGKGLEWIGEINPDSSTINYTPSLKAKFIISRDNAKNTLYLQMSKVRSEDTALYYCTGPAYWGQGTLVTVSA VL: DIVMTQSQKFMSTSVGDRVSVACKAGQNVGTSVAWYQQKPGHSPKSLIYSASYRYSGVPNRFTGSGSGTDFTLTISNVQSEDLADYFCQQYITYPYTFGGGTKLEII | 25.2 nM | 16.9 nM | > 2000 nM |
| SC27.201 (antibody, V domains shown) VL: DIQMTQSSSSFSVSLGDRVTITCKASEDIYNRLAWYQQKPGNAPRLLISGATSLEAGVPSGFSGSGSGKDYTLSITSLQTEDVATYYCQQYWSTPPTFGGGTKLELK V domain: EVQLQQSGPELVKPGASVKISCKTSGYTFTENIRHWVKQSRGKSLEWIGTINPNNGETRYNQKFKGKATLTVDKSSSTAYMELRSLTSEDSAVYYCTRGITKSPYGMDYWGQGTSITVSS | 48.2 nM | 155 nM | 69.7 nM |
| SC27.104 (antibody, V domains shown) VH: EVQLQQSGPELVKPGASVKISCKTSGYTFTEYTVHWVKQSHGKSLEWIGGVYPKNGDTTYNQKFRGKATLTVDKSSNTAYMELRSLTSEDSAVYYCTGKDGYDGFAYWGQGTLVTVSA VL: DIQMTQSSSSFSVSLGDRVTITCKASEDIYNRLAWYQQKPGNAPRLLISGATSLETGVPSRFSGSGSGKDYTLSITSLQTEDVATYYCQQYWSNPPTFGGGTKLEIK | 284 nM | > 2000 nM | 969 nM |
| SC27.105 (antibody, V domains shown) VH: EVQLQQSGPELVKPGASVKISCKASGYSFTGYYMNWVKQSPEKSLEWIGEINPSTGSTTYNQKFKAKATLTVDKSSSTAYMQLKSLTSEDSAVYYCARRDYYYGSGFYAMDYWGQGTSVTVSS VL: DVQMTQSPSSLSASLGERVSLTCQASQSVSNNLNWYQQTPGKAPRLLIYGASKLEDGVSSRFSGTGYGTDFTFTISSLEEEDVATYFCLQHRYLWTFGGGTKLEIK | 235 nM | > 2000 nM | > 2000 nM |
| SC27.103 (antibody, V domains shown) VH: EVHLQQSGPELVKPGGSMKISCKASGYSFTGYTMNWVKQSHGKNLEWIGLFNPYNGGTSYNQKFKGKATLTVDKSSSTAYMELLSLTSEDSAVYYCARCYRYDGLDYWGQGTTLTVSS VL: QIVLTQSPAIMSASLGERVTMTCTASSSVSSSYLHWYQQKPGSSPTLWIYRTSDLASGVPARFSGSGSGTSYSLTISSMEAEDAATYYCHQYHRSPWTFGGGTRLEIK | 57.7 nM | 466 nM | > 2000 nM |
| SC27.108 (antibody, V domains shown) VH: QVQMQQSGAELVRPGTSVKVSCKASGYAFTNYLIEWVKQRPGQGLEWIGLINPGSGGTNYNEKFKGKATLTADKSSTTAYMQLSSLTSDDSAVYFCARRSPLGSWIYYAYDGVAYWGQGTLVTVSA VL: EIVLTQSPALMAASPGEKVTITCSVSSSISSSNLHWYQQKSGTSPKLWIYGTSNLASGVPVRFSGSGSGTSYSLTISNMEAEDAATYYCQQWSSYPHTFGGGTKLEIK | 102 nM | > 2000 nM | > 2000 nM |
